Measured values as given in doi:10.1101/2025.08.13.670122.
Where two headings read alike, the source gives them in different places.

What was measured:
[1] = target: human Angiotensin II Type 1 receptor (human) (UniProt P30556)
[2] = target: human Angiotensin II Type 1 receptor (human) (UniProt P30556); remark: listed apart in the source
[3] = target: human Angiotensin II Type 1 receptor (human) (UniProt P30556); remark: listed apart in the source
[4] = target: human Angiotensin II Type 1 receptor (human) (UniProt P30556); experiment: radioligand binding
[5] = target: human Angiotensin II Type 1 receptor (human) (UniProt P30556); remark: listed apart in the source
[6] = target: human Angiotensin II Type 1 receptor (human) (UniProt P30556); remark: listed apart in the source
[7] = target: human Angiotensin II Type 1 receptor (human) (UniProt P30556); remark: listed apart in the source

Chain of human Angiotensin II Type 1 receptor (human) (P30556 whole entry): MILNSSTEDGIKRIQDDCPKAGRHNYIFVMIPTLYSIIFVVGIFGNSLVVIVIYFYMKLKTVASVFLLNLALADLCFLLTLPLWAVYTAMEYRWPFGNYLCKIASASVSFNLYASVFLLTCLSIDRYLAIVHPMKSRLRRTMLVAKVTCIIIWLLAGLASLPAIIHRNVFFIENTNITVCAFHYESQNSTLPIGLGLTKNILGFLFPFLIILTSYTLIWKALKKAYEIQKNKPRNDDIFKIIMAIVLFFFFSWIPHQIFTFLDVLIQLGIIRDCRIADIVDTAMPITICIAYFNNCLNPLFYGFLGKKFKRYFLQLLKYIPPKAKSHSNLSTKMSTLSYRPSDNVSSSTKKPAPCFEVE

With “AngII analog 11 (Tyr(Me) at position 8) (peptide)” the Gαq activation (GABY BRET sensor, HEK293 cells expressing AT1R), EC50 [1] was 1.1 nM and the β-arrestin2 recruitment (BRET, HEK293 cells expressing AT1R), EC50 [1] was 0.36 nM.

Substance “AngII analog 30a ((o-F)Phe at position 8) (peptide)” has a Gαq activation (GABY BRET sensor, HEK293 cells expressing AT1R), EC50 [2] of 1 nM.

Work on “AngII analog 14 (p-tBuPhe at position 8) (peptide)” yielded a β-arrestin2 recruitment (BRET, HEK293 cells expressing AT1R), EC50 [1] of 26 nM.

With “AngII analog 12 (Tyr(Bzl) at position 8) (peptide)” the Gαq activation (GABY BRET sensor, HEK293 cells expressing AT1R), EC50 [1] was > 10000 nM and the β-arrestin2 recruitment (BRET, HEK293 cells expressing AT1R), EC50 [1] was 2.5 nM.

Work on “AngII analog 15 (Dip at position 8) (peptide)” yielded a Gαq activation (GABY BRET sensor, HEK293 cells expressing AT1R), EC50 [1] of 7.9 nM.

Substance “AngII analog 29b ((m-Cl)Phe at position 8) (peptide)” has a Gαq activation (GABY BRET sensor, HEK293 cells expressing AT1R), EC50 [3] of 1.5 nM.

With TRV027 (peptide) the Ki [4] was 6.6 nM.

With “AngII analog 24a ((o-OH)Phe at position 8) (peptide)” the Gαq activation (GABY BRET sensor, HEK293 cells expressing AT1R), EC50 [2] was 2.1 nM.

With “AngII analog 24b ((m-OH)Phe at position 8) (peptide)” the Gαq activation (GABY BRET sensor, HEK293 cells expressing AT1R), EC50 [3] was 4.6 nM.

For “AngII analog 29c ((p-Cl)Phe at position 8) (peptide)”, the Gαq activation (GABY BRET sensor, HEK293 cells expressing AT1R), EC50 [3] was 2.5 nM.

For “AngII analog 30c ((p-F)Phe at position 8) (peptide)”, the Gαq activation (GABY BRET sensor, HEK293 cells expressing AT1R), EC50 [3] was 1.7 nM.

Work on “AngII analog 13 (Bip at position 8) (peptide)” yielded a β-arrestin2 recruitment (BRET, HEK293 cells expressing AT1R), EC50 [1] of 15 nM.

“AngII analog 23a ((o-CN)Phe at position 8) (peptide)” was tested, and the Gαq activation (GABY BRET sensor, HEK293 cells expressing AT1R), EC50 [5] was > 10000 nM and the β-arrestin2 recruitment (BRET, HEK293 cells expressing AT1R), EC50 [5] was < 2.5 nM.

“AngII analog 22b ((m-NO2)Phe at position 8) (peptide)” was tested, and the Gαq activation (GABY BRET sensor, HEK293 cells expressing AT1R), EC50 [3] was 4.4 nM.

In the case of “AngII analog 16 (Ser(Bzl) at position 8) (peptide)”, the Gαq activation (GABY BRET sensor, HEK293 cells expressing AT1R), EC50 [1] is reported as > 10000 nM.

Substance “AngII analog 20 (4ThzAla at position 8) (peptide)” has a Gαq activation (GABY BRET sensor, HEK293 cells expressing AT1R), EC50 [6] of 14 nM.

For “AngII analog 27b ((m-I)Phe at position 8) (peptide)”, the Gαq activation (GABY BRET sensor, HEK293 cells expressing AT1R), EC50 [3] was 4.5 nM.

In the case of “AngII analog 30b ((m-F)Phe at position 8) (peptide)”, the Gαq activation (GABY BRET sensor, HEK293 cells expressing AT1R), EC50 [3] is reported as 2.4 nM.

For “AngII analog 28b ((m-Br)Phe at position 8) (peptide)”, the Gαq activation (GABY BRET sensor, HEK293 cells expressing AT1R), EC50 [3] was 1.9 nM.

“AngII analog 11 (Tyr(Me) at position 8) (from UniProt P01019)” showed a Ki [7] of 0.23 nM.

“AngII analog 23b ((m-CN)Phe at position 8) (peptide)” gave a Gαq activation (GABY BRET sensor, HEK293 cells expressing AT1R), EC50 [3] of 5.9 nM.
